Reference: patent US20110044984A1 (Chugai, published 2011)

Biological target: T1, extracellular domain of mouse AXL (mAXL-ECD; R&D) (mouse, UniProt Q00993 19-445)
T1 construct: extracellular domain; Bought protein
T1 sequence (looked up): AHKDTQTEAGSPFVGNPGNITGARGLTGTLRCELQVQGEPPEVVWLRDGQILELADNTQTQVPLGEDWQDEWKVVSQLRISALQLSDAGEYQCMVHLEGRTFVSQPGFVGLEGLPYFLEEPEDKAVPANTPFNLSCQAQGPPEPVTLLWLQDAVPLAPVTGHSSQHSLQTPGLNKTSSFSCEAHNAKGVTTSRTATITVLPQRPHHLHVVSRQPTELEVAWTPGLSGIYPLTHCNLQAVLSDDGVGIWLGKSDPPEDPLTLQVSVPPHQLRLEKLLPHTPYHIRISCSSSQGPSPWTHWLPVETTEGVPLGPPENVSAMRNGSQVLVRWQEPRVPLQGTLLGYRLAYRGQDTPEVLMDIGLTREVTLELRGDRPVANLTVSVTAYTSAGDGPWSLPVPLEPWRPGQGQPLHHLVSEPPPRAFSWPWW
Assay: ELISA, antibody at 3 µg/mL on coated mAXL-ECD
Method: After the extracellular domain of mouse AXL (hereinafter referred to as mAXL-ECD; R&D) was diluted with coating buffer (100 mM sodium bicarbonate buffer, pH 9.6) to 2 μg/mL, 100 μL was dispensed into a 96-well plate (Nunc-Immuno™ 96 MicroWell™ MaxiSorp™ plates; Nalge Nunc International). After the plate was placed in a refrigerator overnight, the antibody solution in the plate was removed, 200 μL/well of diluent buffer (BlockingOne; Nacalai Tesque) was dispensed, and then blocked for two hours at room temperature. After the removal of the diluent buffer, the anti-AXL antibody prepared above diluted to 3 μg/mL with diluent buffer was dispensed at 100 μL/well, and allowed to stand for 1.5 hours at room temperature. After the removal of the antibody solution, the wells were washed three times with tPBS(−). […] After the removal of the antibody solution, the wells were washed three times with tPBS(−). 100 μL/well of alkaline phosphatase chromogenic substrate solution (BluePhos Microwell Phosphatase Substrate System, Kirkegaad & Perry Laboratories) was dispensed, followed by color development at room temperature. The absorbance at 650 nm was then measured with a microplate reader (Emax, Molecular Devices).

binding result: binds
B1: anti-AXL monoclonal antibody Ax225 (hybridoma AXL No. 225 #070402, Accession No. FERM BP-10854) (antibody, V domains shown)
VH: QVQLKQSGPGLVAPSQSLSITCTVSGLSLTSFGVDWVRQSPGKGLEWLGVIWGGGSTNYNSALKSRLSISKDNSKSQVFLKMNSLQTDDTAMYYCAGEGSKYGAWFAYWGQGTLVTVSS
VL: DVLMTQTPLSLPVSLGDQASISCRSSQNIVHTNGNTYLEWYLQKPGQSPELLIYKVSNRFSGVPDRFSGSGSGTDFTLKISRVEAEDLGVYYCFQGSHIPFTFGTGTKLEIK
notes: Mouse antibody from a hybridoma; Variable genes were amplified with constant region primers MHCg1 (H chain) and MLCk (L chain); also called AXL225 mouse antibody
